{"source": "paper PMC8487046", "binders": {"B1": {"name": "SR‐F1(20‐421), SR‐F1 ectodomain (domain or fragment)", "chain": "SELDPKGQHVCVASSPSAELQCCAGWRQKDQECTIPICEGPDACQKDEVCVKPGLCRCKPGFFGAHCSSRCPGQYWGPDCRESCPCHPHGQCEPATGACQCQADRWGARCEFPCACGPHGRCDPATGVCHCEPGWWSSTCRRPCQCNTAAARCEQATGACVCKPGWWGRRCSFRCNCHGSPCEQDSGRCACRPGWWGPECQQQCECVRGRCSAASGECTCPPGFRGARCELPCPAGSHGVQCAHSCGRCKHNEPCSPDTGSCESCEPGWNGTQCQQPCLPGTFGESCEQQCPHCRHGEACEPDTGHCQRCDPGWLGPRCEDPCPTGTFGEDCGSTCPTCVQGSCDTVTGDCVCSAGYWGPSCNASCPAGFHGNNCSVPCECPEGLCHPVSGSCQPGSGSRDT"}}, "target": "acetylated BSA (AcBSA) (bovine (from the name BSA)) (UniProt P02769)", "assay": "SPR; AcBSA immobilized (900 RU, CM5, amine coupling; BSA as reference surface), serially diluted SREC-II(44-442) or SR-F1(20-421) injected; TBS-Ca-P; 20 µL/min; 25 °C; global fit, 1:1 Langmuir model; apparent KD"}
{"binder": "B1", "values": [{"measurement": "Kd", "value": 790, "unit": "nM"}, {"measurement": "koff", "value": 0.0015, "unit": "s⁻¹"}, {"measurement": "kon", "value": 2000, "unit": "M⁻¹ s⁻¹"}]}
